Results on 28 substances are retold here after patent US20230135471A1, “UBIQUITIN VARIANTS WITH IMPROVED AFFINITY FOR 53BP1” (Integrated DNA Technologies, Inc., priority 2021, published 2023).

The target in this test is 53BP1 fragment (a.a. 1221-1718) fused to an adenylate cyclase fragment (two-hybrid) (UniProt Q12888). Description: cell-based or functional assay.
“i53 + R74I two-hybrid fusion (designed binder)”: the Experiment 1 Average Enrichment came to 0.83 log2, the Experiment 1 Rep 1 Enrichment amounted to 0.84 log2, the Experiment 1 Rep 2 Enrichment was determined as 0.83 log2 and the Experiment 2 Average Enrichment was 0.61 log2. This substance displayed an Experiment 2 Rep 1 Enrichment of 0.63 log2 and an Experiment 2 Rep 2 Enrichment of 0.58 log2.
For the substance “i53 + K48N two-hybrid fusion (designed binder)”, the Experiment 1 Average Enrichment was -0.04 log2, the Experiment 1 Rep 1 Enrichment is -0.15 log2, the Experiment 1 Rep 2 Enrichment stood at 0.08 log2 and the Experiment 2 Average Enrichment turned out to be 0.06 log2. The substance also registered an Experiment 2 Rep 1 Enrichment of 0.09 log2 and an Experiment 2 Rep 2 Enrichment of 0.03 log2.
As for “i53 + D21E two-hybrid fusion (designed binder)”, the Experiment 1 Average Enrichment came to 0.51 log2, the Experiment 1 Rep 1 Enrichment turned out to be 0.2 log2, the Experiment 1 Rep 2 Enrichment was found to be 0.82 log2 and the Experiment 2 Average Enrichment is -0.23 log2. The Experiment 2 Rep 1 Enrichment is -0.63 log2 and the Experiment 2 Rep 2 Enrichment turned out to be 0.16 log2.
In turn, “i53 + K33M two-hybrid fusion (designed binder)” gave an Experiment 1 Average Enrichment of 2.34 log2, an Experiment 1 Rep 1 Enrichment of 2.3 log2, an Experiment 1 Rep 2 Enrichment of 2.37 log2 and an Experiment 2 Average Enrichment of 1.06 log2. Moreover, the Experiment 2 Rep 1 Enrichment was 1.51 log2 and the Experiment 2 Rep 2 Enrichment came to 0.61 log2.
With “i53 + N25F two-hybrid fusion (designed binder)”, the Experiment 1 Average Enrichment amounted to 0.38 log2, the Experiment 1 Rep 1 Enrichment amounted to 0.42 log2, the Experiment 1 Rep 2 Enrichment stood at 0.34 log2 and the Experiment 2 Average Enrichment is -0.04 log2. In addition, the Experiment 2 Rep 1 Enrichment turned out to be 0.12 log2 and the Experiment 2 Rep 2 Enrichment was -0.2 log2.
As for “i53 + S57R two-hybrid fusion (designed binder)”, the Experiment 1 Average Enrichment is 0.02 log2, the Experiment 1 Rep 1 Enrichment came to 0.05 log2, the Experiment 1 Rep 2 Enrichment is -0.01 log2 and the Experiment 2 Average Enrichment is -0.18 log2. Further, the Experiment 2 Rep 1 Enrichment is -0.32 log2 and the Experiment 2 Rep 2 Enrichment is -0.03 log2.
“i53 + P19K two-hybrid fusion (designed binder)”: the Experiment 1 Average Enrichment amounted to 1 log2, the Experiment 1 Rep 1 Enrichment was 2.12 log2, the Experiment 1 Rep 2 Enrichment is -0.12 log2 and the Experiment 2 Average Enrichment was -0.68 log2. The Experiment 2 Rep 1 Enrichment is -0.26 log2 and the Experiment 2 Rep 2 Enrichment was -1.1 log2.
The substance “i53 + S57E two-hybrid fusion (designed binder)” came in with an Experiment 1 Average Enrichment of 0.45 log2, an Experiment 1 Rep 1 Enrichment of 0.28 log2, an Experiment 1 Rep 2 Enrichment of 0.62 log2 and an Experiment 2 Average Enrichment of 0.35 log2. This substance gave an Experiment 2 Rep 1 Enrichment of 0.42 log2 and an Experiment 2 Rep 2 Enrichment of 0.28 log2.
For the substance “i53 + Q41V two-hybrid fusion (designed binder)”, the Experiment 1 Average Enrichment was -0.14 log2, the Experiment 1 Rep 1 Enrichment was -0.37 log2, the Experiment 1 Rep 2 Enrichment was 0.1 log2 and the Experiment 2 Average Enrichment was found to be 0.05 log2. Further, the Experiment 2 Rep 1 Enrichment amounted to 0.13 log2 and the Experiment 2 Rep 2 Enrichment was -0.03 log2.
“i53 + R42S two-hybrid fusion (designed binder)”: the Experiment 1 Average Enrichment was -0.08 log2, the Experiment 1 Rep 1 Enrichment was -0.13 log2, the Experiment 1 Rep 2 Enrichment is -0.02 log2 and the Experiment 2 Average Enrichment worked out at 0.23 log2. Also, the Experiment 2 Rep 1 Enrichment came out at 0.05 log2 and the Experiment 2 Rep 2 Enrichment was determined as 0.41 log2.
Consider “i53 + I13P two-hybrid fusion (designed binder)”, for which the Experiment 1 Average Enrichment was determined as 0.58 log2, the Experiment 1 Rep 1 Enrichment came out at 2.15 log2, the Experiment 1 Rep 2 Enrichment was -0.99 log2 and the Experiment 2 Average Enrichment was -4.23 log2. The Experiment 2 Rep 1 Enrichment was -3.84 log2 and the Experiment 2 Rep 2 Enrichment was -4.62 log2.
As to “i53 + N25C two-hybrid fusion (designed binder)”, the Experiment 1 Average Enrichment was found to be 0.13 log2, the Experiment 1 Rep 1 Enrichment turned out to be 0.45 log2, the Experiment 1 Rep 2 Enrichment was -0.19 log2 and the Experiment 2 Average Enrichment is 0.26 log2. The same substance returned an Experiment 2 Rep 1 Enrichment of 0.31 log2 and an Experiment 2 Rep 2 Enrichment of 0.21 log2.
Turning to “i53 + K33N two-hybrid fusion (designed binder)”, the Experiment 1 Average Enrichment stood at 0.29 log2, the Experiment 1 Rep 1 Enrichment was found to be 0.48 log2, the Experiment 1 Rep 2 Enrichment turned out to be 0.1 log2 and the Experiment 2 Average Enrichment came to 0.24 log2. The same substance yielded an Experiment 2 Rep 1 Enrichment of 0.06 log2 and an Experiment 2 Rep 2 Enrichment of 0.41 log2.
Regarding “i53 + S49C two-hybrid fusion (designed binder)”, the Experiment 1 Average Enrichment was found to be 0.6 log2, the Experiment 1 Rep 1 Enrichment was 0.95 log2, the Experiment 1 Rep 2 Enrichment worked out at 0.24 log2 and the Experiment 2 Average Enrichment is -0.18 log2. The Experiment 2 Rep 1 Enrichment is -0.04 log2 and the Experiment 2 Rep 2 Enrichment is -0.31 log2.
Substance “i53 + S57H two-hybrid fusion (designed binder)” displayed an Experiment 1 Average Enrichment of 0.72 log2, an Experiment 1 Rep 1 Enrichment of 0.54 log2, an Experiment 1 Rep 2 Enrichment of 0.9 log2 and an Experiment 2 Average Enrichment of 0.17 log2. The Experiment 2 Rep 1 Enrichment is -0.04 log2 and the Experiment 2 Rep 2 Enrichment came out at 0.39 log2.
For “i53 + K33L two-hybrid fusion (designed binder)”, the Experiment 1 Average Enrichment came to 2.53 log2, the Experiment 1 Rep 1 Enrichment is 2.4 log2, the Experiment 1 Rep 2 Enrichment was determined as 2.65 log2 and the Experiment 2 Average Enrichment is 1.6 log2. The same substance came in with an Experiment 2 Rep 1 Enrichment of 1.67 log2 and an Experiment 2 Rep 2 Enrichment of 1.53 log2.
For the substance “i53 + H68E two-hybrid fusion (designed binder)”, the Experiment 1 Average Enrichment was -1.08 log2, the Experiment 1 Rep 1 Enrichment was -0.69 log2, the Experiment 1 Rep 2 Enrichment is -1.48 log2 and the Experiment 2 Average Enrichment came to 0.1 log2. Besides, the Experiment 2 Rep 1 Enrichment is 0.33 log2 and the Experiment 2 Rep 2 Enrichment was -0.13 log2.
Regarding “i53 + S49N two-hybrid fusion (designed binder)”, the Experiment 1 Average Enrichment came to 0.04 log2, the Experiment 1 Rep 1 Enrichment came to 0.31 log2, the Experiment 1 Rep 2 Enrichment was -0.23 log2 and the Experiment 2 Average Enrichment is -0.35 log2. The Experiment 2 Rep 1 Enrichment is -0.59 log2 and the Experiment 2 Rep 2 Enrichment is -0.11 log2.
The substance “i53 + N25D two-hybrid fusion (designed binder)” registered an Experiment 1 Average Enrichment of 0.33 log2, an Experiment 1 Rep 1 Enrichment of 0.11 log2, an Experiment 1 Rep 2 Enrichment of 0.54 log2 and an Experiment 2 Average Enrichment of 0.45 log2. This substance showed an Experiment 2 Rep 1 Enrichment of 0.49 log2 and an Experiment 2 Rep 2 Enrichment of 0.41 log2.
With “i53 + N60Q two-hybrid fusion (designed binder)”, the Experiment 1 Average Enrichment amounted to 0.08 log2, the Experiment 1 Rep 1 Enrichment is 0.13 log2, the Experiment 1 Rep 2 Enrichment was determined as 0.03 log2 and the Experiment 2 Average Enrichment is 0.29 log2. This substance showed an Experiment 2 Rep 1 Enrichment of 0.01 log2 and an Experiment 2 Rep 2 Enrichment of 0.58 log2.
Turning to “i53 + A28W two-hybrid fusion (designed binder)”, the Experiment 1 Average Enrichment came to 0.03 log2, the Experiment 1 Rep 1 Enrichment is 0.48 log2, the Experiment 1 Rep 2 Enrichment is -0.41 log2 and the Experiment 2 Average Enrichment was 0.12 log2. Further, the Experiment 2 Rep 1 Enrichment is 0.41 log2 and the Experiment 2 Rep 2 Enrichment was -0.17 log2.
“i53 + L67S two-hybrid fusion (designed binder)” registered an Experiment 1 Average Enrichment of 1.18 log2, an Experiment 1 Rep 1 Enrichment of 1.15 log2, an Experiment 1 Rep 2 Enrichment of 1.2 log2 and an Experiment 2 Average Enrichment of 0.94 log2. Besides, the Experiment 2 Rep 1 Enrichment is 1.24 log2 and the Experiment 2 Rep 2 Enrichment amounted to 0.63 log2.
Take “i53 + N25I two-hybrid fusion (designed binder)”: the Experiment 1 Average Enrichment amounted to 0.83 log2, the Experiment 1 Rep 1 Enrichment turned out to be 0.85 log2, the Experiment 1 Rep 2 Enrichment came to 0.81 log2 and the Experiment 2 Average Enrichment was determined as 0.4 log2. The same substance showed an Experiment 2 Rep 1 Enrichment of 0.41 log2 and an Experiment 2 Rep 2 Enrichment of 0.39 log2.
In turn, “i53 + T14H two-hybrid fusion (designed binder)” gave an Experiment 1 Average Enrichment of 2.56 log2, an Experiment 1 Rep 1 Enrichment of 2.63 log2, an Experiment 1 Rep 2 Enrichment of 2.5 log2 and an Experiment 2 Average Enrichment of 1.65 log2. For the same substance, the Experiment 2 Rep 1 Enrichment was found to be 1.47 log2 and the Experiment 2 Rep 2 Enrichment was 1.84 log2.
“i53 + M1T two-hybrid fusion (designed binder)” returned an Experiment 1 Average Enrichment of 0.68 log2, an Experiment 1 Rep 1 Enrichment of 0.79 log2, an Experiment 1 Rep 2 Enrichment of 0.56 log2 and an Experiment 2 Average Enrichment of 0.61 log2. Moreover, the Experiment 2 Rep 1 Enrichment was determined as 0.63 log2 and the Experiment 2 Rep 2 Enrichment turned out to be 0.6 log2.
Turning to “i53 + T7C two-hybrid fusion (designed binder)”, the Experiment 1 Average Enrichment amounted to 1.2 log2, the Experiment 1 Rep 1 Enrichment was determined as 1.16 log2, the Experiment 1 Rep 2 Enrichment came to 1.23 log2 and the Experiment 2 Average Enrichment turned out to be 0.79 log2. The same substance showed an Experiment 2 Rep 1 Enrichment of 0.9 log2 and an Experiment 2 Rep 2 Enrichment of 0.69 log2.
In the case of “i53 + R54N two-hybrid fusion (designed binder)”, the Experiment 1 Average Enrichment worked out at 0.19 log2, the Experiment 1 Rep 1 Enrichment is -0.26 log2, the Experiment 1 Rep 2 Enrichment is 0.65 log2 and the Experiment 2 Average Enrichment worked out at 0.01 log2. Besides, the Experiment 2 Rep 1 Enrichment is 0.03 log2 and the Experiment 2 Rep 2 Enrichment was -0.01 log2.
With “i53 + E16D two-hybrid fusion (designed binder)”, the Experiment 1 Average Enrichment is -0.2 log2, the Experiment 1 Rep 1 Enrichment is -0.69 log2, the Experiment 1 Rep 2 Enrichment amounted to 0.3 log2 and the Experiment 2 Average Enrichment was 0.13 log2. Besides, the Experiment 2 Rep 1 Enrichment stood at 0.42 log2 and the Experiment 2 Rep 2 Enrichment was -0.15 log2.
